The values below come from patent US20110158938A1.

The target of the experiment is IL-15Rα expressed by TF-1 cells (human) (UniProt Q13261). Description: cell-based or functional assay.
Chain of UniProt Q13261 (Q13261 31-267): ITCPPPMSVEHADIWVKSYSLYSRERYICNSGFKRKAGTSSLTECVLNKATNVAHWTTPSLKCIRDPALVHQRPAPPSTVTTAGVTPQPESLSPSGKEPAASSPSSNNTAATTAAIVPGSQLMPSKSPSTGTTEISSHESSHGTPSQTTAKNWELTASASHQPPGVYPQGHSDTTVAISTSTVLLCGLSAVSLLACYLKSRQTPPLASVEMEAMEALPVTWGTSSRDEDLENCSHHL

Substance “FLAG-IL-15 L44D (from UniProt P40933 49-162) (ligand)” yielded an EC50 (pM), TF-1β proliferation of more than 20 pM; a Maximal induction (% WT), TF-1β proliferation of 0 % WT; a Relative activity (% WT), TF-1β proliferation of less than 30 % WT.
Regarding “FLAG-IL-15 L47D (from UniProt P40933 49-162) (ligand)”, the EC50 (pM), TF-1β proliferation was more than 60 pM; the Maximal induction (% WT), TF-1β proliferation turned out to be 0 % WT; the Relative activity (% WT), TF-1β proliferation is less than 10 % WT.
